From the supplement of paper PMC9170038

How the values were obtained:
MS2 coat protein = experiment: apparent KD of MS2 coat protein; higher = weaker reporter binding; settings: Eterna round: R107
Procedure: (§1)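 RNA-MaP round R107: designed RNA switches with theophylline, tryptophan, arginine or FMN aptamers are transcribed on-chip within common flanks. They are titrated with SNAP-549-labelled MS2 coat protein in RNA-MaP buffer (100 mM Tris pH 7.5, 80 mM KCl, 4 mM MgCl2), without ligand or with the indicated ligand. Median apparent KD per design.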

[1] = system: K4 kissing-loop RNA reporter; experiment: apparent KD of K4 kissing-loop reporter; higher = weaker reporter binding; settings: Eterna round: R107;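 note: bound reporter read as fluorescence of individual clusters on recovered sequencing chips by microscopy, with normalized cluster intensities fitted with a binding model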
Procedure: as §1, with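 “a labelled K4 kissing-loop RNA reporter” for “SNAP-549-labelled MS2 coat protein”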

[2] = input ligand: theophylline 20 uM
[3] = input ligand: theophylline 2 mM
[4] = input ligand: tryptophan 2.4 mM

Row | Sequence | apparent KD of MS2 coat protein (MS2 coat protein; input ligand: arginine 13.2 mM) [nM] | apparent KD of MS2 coat protein (MS2 coat protein; [2]) [nM] | apparent KD of MS2 coat protein (MS2 coat protein; [3]) [nM] | apparent KD of MS2 coat protein (MS2 coat protein; input ligand: none) [nM] | apparent KD of MS2 coat protein (MS2 coat protein; [4]) [nM] | apparent KD of K4 kissing-loop reporter ([1]; input ligand: FMN 200 uM) [nM] | apparent KD of K4 kissing-loop reporter ([1]; input ligand: arginine 13.2 mM) [nM] | apparent KD of K4 kissing-loop reporter ([1]; input ligand: none) [nM] | apparent KD of K4 kissing-loop reporter [1, 2] [nM] | apparent KD of K4 kissing-loop reporter [1, 4] [nM]
1 | AUAACAUGAGGAUCACCCAUGUAUUGGUUACGAGGACCGGUACGGCCGCCACUCGUAUUUUGGUGGUAUUUUGUAUAUAUGAUAA [JR_SSTryptoA_Sub018] | 26.6 | 32.3 | 36.5 | – | – | – | – | – | – | –
2 | AACACAUGAGGAUCACCCAUGUCCAUGUACCGAGGACCGGUACGGCCGCCACUCGACAUGAGGAUCACCCAUGUUCCAUGUUGUC [Same State Tryptophan A 3] | 76 | 131 | 146 | – | – | – | – | – | – | –
3 | AUUGACGUUGCGGCCGCCACUAGGCGUUCCCGGACAUGAGGAUCACCCAUGUGCUAGAGUGUAACUAGGACCGGGUAACCUCAGC [Verevean] | 124 | 290 | 260 | 103 | 176 | – | – | – | – | –
4 | AAUACCGGAUCGGCCGCCACUGGUUGGCCCUGUGUACAUGAGGAUCACCCAUGUCCAUCCCAGACCAGGACCGGGAUCUUUGUGU [Ingeraza] | 15.6 | 20 | 18.5 | – | – | – | – | – | – | –
5 | CCGAACAUGAGGAUCACCCAUGUUAGGGAUACCAGCCCAGACAUGGGCCCUUGGCAGCUCUAUAGCUGACGAAAGUCAGCAUCGG [#14 SameState-TheophyllineA] | 34.9 | 65.7 | – | – | 44.4 | – | – | – | – | –
6 | ACGUCCAGGUUAAUCGUGGACAUGGUCGAUACCAGUAUUUUAAUCUACCCUUGGCAGCGACAUGAGGAUCACCCAUGUGCGAUGA [XTheo A #15] | 11.7 | 14.7 | – | – | 13 | – | – | – | – | –
7 | CGCGCGACAUGAGGAUCACCCAUGUUCCCUCGAGGACCGGUACGGCCGCCACUCGAGGACAUGAGCAUCAGCCAUGUACCGGUCA [Default title] | 28.8 | 54.6 | 66.2 | – | – | – | – | – | – | –
8 | ACAUGAGGAUCACCCAUGUAUUACCGGGAAGGAGCGCGUAAGGACGCAGGUAGGUCGCUCGGCGUCGUGCCGGAAGGCACGACGA [#1 Same State - Arginine A Attempt #22 (HarryS)] | 17.9 | 49.8 | 15.6 | 13.6 | 13.8 | – | – | – | – | –
9 | UCGUCAGGCGCGGCCGCCACUGCGGUGAUGUGACAUGAGGAUCACCCAUGUUGUCAUGUGGCACAUAGGACCGGGUGCCUGGCGA [Exclusion - Tryptophan B Attempt #5 (HarryS)] | 8.16 | 44.5 | 114 | 56 | 17.6 | – | – | – | – | –
10 | AUCGUACCUGAUGAUACCAGCAAUUGCUCGUAACAUGAGGAUCACCCAUGUGACCAGUGAUGCCCUUGGCAGCAUGGUCGGUGCA [Same State - Theophylline B (Freestyle 21)] | 59.5 | 190 | – | – | 150 | – | – | – | – | –
11 | ACGACAUGAGGAUCACCCAUGUAAGGUGAUACCAGACGAAGUAAUGUCCCUUGGCAGCACACGCAUAGUUGCGAUUAUUGUACGA [JR_SSTheophyA_Sub007] | 83.7 | 522 | – | – | 572 | – | – | – | – | –
12 | GCUGUACCAUGAAGGAGCGCUCACGCAGUUGCGGGUACAUGAGGAUCACCCAUGUUGGGUGAGCAGGUAGGUCGCAUGGUACAGC [SSAB #17] | 227 | 193 | 230 | 237 | 215 | – | – | – | – | –
13 | GGUUUGCGGCCUGAUACCAGUGAUGGAUGAACCCUAGUCAACAUGAGGAUCACCCAUGUUCACCCUUGGCAGCAGUGACGCUCGA [theeternabot_exclusion_MS2_Theo_B_34] | 43.2 | 78.7 | 354 | 69.7 | 74.1 | – | – | – | – | –
14 | AGAUGUAGCGGAAGGAGCGUCAUGAGGAUCACCCAUGGCUCCCGUUGUGGGAGUUCCUUAGGUCAGGUAGGUCGCCGUUACGUCA [Omei Arg B SS B v6] | 79.7 | 187 | 254 | 359 | 137 | – | – | – | – | –
15 | UUCAGACAUGAGGAUCACCCAUGUACUGAAGGAGCGGAUAAAUAUCCAGGUAGGUCGCAGUAUUGAGGGUCUACUUCCAGUCUUA [Rexeesqu] | 11.7 | 12.9 | 10.4 | 9.36 | 10.1 | – | – | – | – | –
16 | GUAAUUAUAAGAAGGAGCGUCGAAAAUGGGUAAACAUGAGGAUCACCCAUGUAAAGGGAACGACAGGUAGGUCGCUUAUGAUUAC [AstromonsSSArgB#22] | 76.5 | 164 | 274 | 185 | 202 | – | – | – | – | –
17 | GGUGUAUCCAUCGAUACCAGCCACCACCGAUAGACCACAUGAGGAUCACCCAUGUUGGGUGGCCCUUGGCAGCGGUGGCUGUGCC [Same State - Theophylline B Attempt #3 (HarryS)] | 79.9 | 592 | – | – | 353 | – | – | – | – | –
18 | CCAGGACGAUGAGGAGGAUGAAUUACUGAAGGAGCGCAUAUGGUUGCAGGUAGGUCGCGGUGAACAAGUAUAGUGAUGUUAUACC [SSArgA.T] | – | – | – | – | – | 339 | 290 | 368 | 343 | 445
19 | UGUACCGAGUUAGGAUAUGUCGUCGAAAGACGAAAUGGAGUGAUGUUCCUUAAACUGCGAAAGCAGACAGAAGGGACUUGGUACU [FmnBS 29 U11] | – | – | – | – | – | 233 | 473 | 474 | 493 | 429

Row | Sequence | apparent KD of MS2 coat protein (MS2 coat protein; input ligand: arginine 13.2 mM) [nM] | apparent KD of MS2 coat protein (MS2 coat protein; [2]) [nM] | apparent KD of MS2 coat protein (MS2 coat protein; [3]) [nM] | apparent KD of MS2 coat protein (MS2 coat protein; input ligand: none) [nM] | apparent KD of MS2 coat protein (MS2 coat protein; [4]) [nM] | apparent KD of K4 kissing-loop reporter ([1]; input ligand: FMN 200 uM) [nM] | apparent KD of K4 kissing-loop reporter ([1]; input ligand: arginine 13.2 mM) [nM] | apparent KD of K4 kissing-loop reporter ([1]; input ligand: none) [nM] | apparent KD of K4 kissing-loop reporter [1, 2] [nM] | apparent KD of K4 kissing-loop reporter [1, 4] [nM]
20 | GCAACUCUCAGUGAUGUUGAGUUAUCGGAAGGAGCGCGUGAAAACGCAGGUAGGUCGCCGAUACAAUGAGUUUCUCGUUGGUUGC [Arginine A K4 21] | – | – | – | – | – | 769 | 489 | 664 | 554 | 569
21 | AGCAUUUUCAGAAGGAGCGUGAAUUAUUCUUAAUUAUAUUAUACGAGUGAUGUUCGUGUUUCACAGGUAGGUCGCUGAUAUAGCA [JR_SSArginiB_Sub004] | – | – | – | – | – | 51.4 | 90.3 | 47.7 | 98.3 | 45.5
22 | CCGAGCCUGACGAAAGUCAGGCUCUGCGAGCGAGGACCGGUACGGCCGCCACUCGGUGCAGUGAUGUUGCAUGGCCGCAAGGCCG [#2 Exclusion - Tryptophan A Attempt #22 (HarryS)] | – | – | – | – | – | 156 | 223 | 240 | 261 | 312
23 | CGCAAGCAGCCAGUGAUGUUGGCCGCCUUGCGAGGACCGGUACGGCCGCCACUCGAAGGCGGCUACUGAUAAACCGUCUAACGGA [KL-XTryp-A9] | – | – | – | – | – | 112 | 96.3 | 105 | 95.4 | 274
24 | UAAUCCUAGUGAUAAUUAUCAAGUGGUGGGCGAGGACCGGUACGGCCGCCACUCGAAUAUGCAGUGAUGUUGUAAUCCGGAUAAU [Exclusion - Tryptophan A (Freestyle 7)] | – | – | – | – | – | 639 | 636 | 534 | 715 | 441
25 | UCUCAAGCACAGUGAUGUUGUGCUUGGGAAGGAGCGCGUGGGAACGCAGGUAGGUCGCCCGGUAAAUCGCGUCAAUGCUAGAGGC [Arg A Ex t5] | – | – | – | – | – | 118 | 110 | 99.9 | 100 | 116
26 | UGUACAUGUCACCGAGUGAUGUUCGACGAUACCAGACUCGAUAGAGUCCCUUGGCAGCGUAACGCAUGCCAAAGUGGCAUGUACU [#SwitchBubble 10 #K4Early] | – | – | – | – | – | 925 | 521 | 721 | 496 | 598
27 | CCUUCUCUUGAUAGUGAUGUUGUCGAGGACAAGGAUAUCAUCUCAAUGAGAAGGUGUCCUUGAUAACAUGGAGGUCUGAAACAGA [Omei KL FMN A Exc C v10] | – | – | – | – | – | 468 | 394 | 333 | 365 | 420
28 | UGUCAUUGGUCGGCCGCCACUAGGACCGGGACUUCUCUAGUGAUGUUAGUCUGGUCGGCCGCCACUAGGACCGGGACCGAUGACU [KL-SSTryp-B14 #DoubleAptamer] | – | – | – | – | – | 561 | 368 | 671 | 327 | 103
29 | UAUUGUACAGGGAAAUUGAUAAUAGACUUACGAGGACCGGUACGGCCGCCACUCGAUAGUCGAGUGAUGUUCGAAUGCUAUUGAU [Attempt 1] | – | – | – | – | – | 218 | 210 | 211 | 314 | 132
30 | AAAUUUAAUAUAUUUAAUUAAUUAUGUGAUACCAGACAUUUAUAAGUCCCUUGGCAGCACUUUGCAGUGAUGUUGCUUAUAAUAA [JR_SSTheophyA_Sub014] | – | – | – | – | – | 88.8 | 97.1 | 91.4 | 192 | 83.8
31 | GGUCCGCACAUGAGUGAUGUUCAUGUAGAUACCAGUAUCGAAAGAUACCCUUGGCAGCUACGGCACGGACCGGCGGGAAACCGCC | – | – | – | – | – | 213 | 200 | 194 | 291 | 184
32 | CGCAGUGAUGUUGCGAAUAUAAUCACGGAAGGAGCGCGUGAAAACGCAGGUAGGUCGCCGUGUGGUAUGAUGGAAACAUCGUACC [Arginine A K4 12] | – | – | – | – | – | 222 | 207 | 243 | 206 | 191
33 | CAGCAGAGUGAUGUUCUGCUUACUGCGGAUACCAGCUUUGCCAGAGGCCCUUGGCAGCCGCACGGCUCAGUGAUGUUGGGUCACG [Same State Theophylline A GF 13] | – | – | – | – | – | 296 | 293 | 361 | 323 | 301
34 | AGUGAUGUAUGGCGGUUUGUCACUUAUUAUCAGGAUAUAUAAACAAAUAGAAGGGAUGGCGGAGUGAUGUUCCGCCGGCCGCCAU [FMN A Exl V5] | – | – | – | – | – | 172 | 140 | 150 | 157 | 166
35 | CCAUCGCUAUUCGAUACCAGCUACUUAGUGAUGUUAAGUUUAAAUCCACUGUAGGUGGAAAGCCCUUGGCAGCGAAUAGUGAUGG [Theophylline B K4 24] | – | – | – | – | – | 315 | 274 | 306 | 157 | 245
36 | UCCUGCAAUCUGCCACGAAAGUGGGUUGAUACCAGAGUCGAAAGACUCCCUUGGCAGCGAGUGAUGUUCGUUGCAGGUGUAUAAA [MatMod 10 - Jieux - Exclusion - Theophylline A] | – | – | – | – | – | 195 | 184 | 194 | 209 | 179
37 | UGACUGGACUGAAGGAGCGCUAAAACUCCUAGUGAUGUUAGGAAAACGAGACAAAGUCUCGAGCAGGUAGGUCGCAGUCUAGUCU [ArgBS 21 #SwitchBubble #StaticStem] | – | – | – | – | – | 142 | 119 | 131 | 148 | 128
38 | GUAGGAUGAGGAGGAGGAUGAAUUACUGAAGGAGCGCAUAUUUUUGCAGGUAGGUCGCGGUAAAGAAGUAUAGUGAUGUUAUAUA [SSArgA.J] | – | – | – | – | – | 410 | 434 | 381 | 624 | 304
